Data: the supplement of paper PMC9233669
Variants at the floor of the assay were thinned out.

Experiments:
biotinyl-Phe-oxazolone = test: self-aminoacylation, catalytic enhancement (BFO) (fold over background); higher = more active; k-Seq, kA / k0A0; sequences stand for … in GGGAAUGGAUCCACAUCUACGAAUUC…UUCACUGCAGACUUGACGAAGCUG
How it was run: (§1)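 The uncatalyzed rate is the low-activity peak of a bimodal Gaussian fit, and catalytic enhancement is median kA divided by it. The kA values came from pseudo-first-order fits, with 1000 bootstraps, of per-sequence fraction reacted measured by streptavidin capture, triplicate qPCR and Illumina sequencing. Mutagenized RNA pools with a 21-nt variable region (0.43 μM) were reacted with each biotinyl-aminoacyl-oxazolone at 2–1250 μM in 50 μL HEPES/NaCl/KCl/MgCl2/CaCl2 buffer with 5% acetonitrile, pH 6.9–7.0, for 90 minutes at room temperature.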

biotinyl-Ile-oxazolone = test: self-aminoacylation, catalytic enhancement (BIO) (fold over background); higher = more active; k-Seq, kA / k0A0; sequences stand for … in GGGAAUGGAUCCACAUCUACGAAUUC…UUCACUGCAGACUUGACGAAGCUG
How it was run: as §1

biotinyl-Met-oxazolone = test: self-aminoacylation, catalytic enhancement (BMO) (fold over background); higher = more active; k-Seq, kA / k0A0; sequences stand for … in GGGAAUGGAUCCACAUCUACGAAUUC…UUCACUGCAGACUUGACGAAGCUG
How it was run: as §1

biotinyl-Val-oxazolone = test: self-aminoacylation, catalytic enhancement (BVO) (fold over background); higher = more active; k-Seq, kA / k0A0; sequences stand for … in GGGAAUGGAUCCACAUCUACGAAUUC…UUCACUGCAGACUUGACGAAGCUG
How it was run: as §1

biotinyl-Leu-oxazolone = test: self-aminoacylation, catalytic enhancement (BLO) (fold over background); higher = more active; k-Seq, kA / k0A0; sequences stand for … in GGGAAUGGAUCCACAUCUACGAAUUC…UUCACUGCAGACUUGACGAAGCUG
How it was run: as §1

biotinyl-Trp-oxazolone = test: self-aminoacylation, catalytic enhancement (BWO) (fold over background); higher = more active; k-Seq, kA / k0A0; sequences stand for … in GGGAAUGGAUCCACAUCUACGAAUUC…UUCACUGCAGACUUGACGAAGCUG
How it was run: as §1

Row | Sequence | self-aminoacylation (biotinyl-Phe-oxazolone) | self-aminoacylation (biotinyl-Ile-oxazolone) | self-aminoacylation (biotinyl-Met-oxazolone) | self-aminoacylation (biotinyl-Val-oxazolone) | self-aminoacylation (biotinyl-Leu-oxazolone) | self-aminoacylation (biotinyl-Trp-oxazolone)
1 | AUUCACCUAAGUCAUCGGUUG [Fam2.2 aminoacylation ribozyme variant] | 0.716 | 1.06 | 1.14 | 1.24 | 1.23 | 0.969
2 | AUUCACCUAAGUCGUCGGGUG [Fam2.2 aminoacylation ribozyme variant] | 10.1 | 1.88 | 2.18 | 1.87 | 2.55 | 2.02
3 | AUUCACCUACCUCAUCGGGUG [Fam2.2 aminoacylation ribozyme variant] | 22.3 | 2.21 | 2.69 | 2.33 | 4.3 | 2.79
4 | AUUCACCUACGACAUCGGGUG [Fam2.2 aminoacylation ribozyme variant] | 24 | 2.48 | 3.87 | 2.28 | 5.12 | 3.95
5 | AUUCACCUACGGCAUCGGGUG [Fam2.2 aminoacylation ribozyme variant] | 22.2 | 2.29 | 2.91 | 2.7 | 3.86 | 3.22
6 | AUUCACCUACGUCAGCGGGUG [Fam2.2 aminoacylation ribozyme variant] | 31.4 | 2.95 | 4.72 | 2.71 | 6.17 | 4.14
7 | AUUCACCUACGUCAUCCGGUG [Fam2.2 aminoacylation ribozyme variant] | 46.7 | 4.29 | 5.94 | 3.84 | 8.48 | 7.01
8 | AUUCACCUACGUCAUUGGGUG [Fam2.2 aminoacylation ribozyme variant] | 10.9 | 1.5 | 1.97 | 1.51 | 2.47 | 1.51
9 | AUUCACCUAGAGCAUCGGGUG [Fam2.2 aminoacylation ribozyme variant] | 12.4 | 1.76 | 2.34 | 2.06 | 2.43 | 1.64
10 | AUUCACCUAGAUCAACGGGUG [Fam2.2 aminoacylation ribozyme variant] | 25.3 | 2.73 | 4.52 | 2.49 | 5.41 | 4.38
11 | AUUCACCUAGAUCAUCCGGUG [Fam2.2 aminoacylation ribozyme variant] | 17.8 | 3.4 | 3.41 | 3.32 | 3.97 | 2.83
12 | AUUCACCUAGCACAUCGGGUG [Fam2.2 aminoacylation ribozyme variant] | 11.3 | 2.09 | 2.38 | 2.12 | 3.31 | 2.03
13 | AUUCACCUAGCUCACCGGGUG [Fam2.2 aminoacylation ribozyme variant] | 16.7 | 2.15 | 3.66 | 2.52 | 2.64 | 2.11
14 | AUUCACCUAGCUCAUCGGGCG [Fam2.2 aminoacylation ribozyme variant] | 11.7 | 2.26 | 2.3 | 2.57 | 2.33 | 1.8
15 | AUUCACCUAGCUCAUGGGGUG [Fam2.2 aminoacylation ribozyme variant] | 32.8 | 2.97 | 5.15 | 2.8 | 5.64 | 4.56
16 | AUUCACCUAGGACAUAGGGUG [Fam2.2 aminoacylation ribozyme variant] | 18.6 | 2.06 | 3.54 | 2.01 | 4.7 | 3.23
17 | AUUCACCUAGGACAUCGAGUG [Fam2.2 aminoacylation ribozyme variant] | 2.04 | 1.02 | 1.52 | 1.12 | 1.81 | 1.89
18 | AUUCACCUAGGACAUCGGGAG [Fam2.2 aminoacylation ribozyme variant] | 0.29 | 1.02 | 1.08 | 0.991 | 1.03 | 0.92
19 | AUUCACCUAGGACAUCGGGUC [Fam2.2 aminoacylation ribozyme variant] | 0.549 | 1.22 | 0.87 | 1.25 | 1.42 | 0.858
20 | AUUCACCUAGGACUUCGGGUG [Fam2.2 aminoacylation ribozyme variant] | 19.1 | 2.5 | 2.75 | 2.43 | 3.6 | 3.48
21 | AUUCACCUAGGAUAUCGGGUG [Fam2.2 aminoacylation ribozyme variant] | 44.1 | 3.31 | 6.65 | 3.64 | 7.35 | 5.47
22 | AUUCACCUAGGCAAUCGGGUG [Fam2.2 aminoacylation ribozyme variant] | 35.4 | 2.52 | 3.95 | 2.98 | 4.75 | 3.92
23 | AUUCACCUAGGCCAUCGGGUU [Fam2.2 aminoacylation ribozyme variant] | 5.49 | 1.34 | 1.52 | 1.31 | 1.03 | 0.76
24 | AUUCACCUAGGCCGUCGGGUG [Fam2.2 aminoacylation ribozyme variant] | 17.1 | 1.87 | 1.94 | 2.3 | 2.74 | 2.11
25 | AUUCACCUAGGGCAACGGGUG [Fam2.2 aminoacylation ribozyme variant] | 22.8 | 2.59 | 2.81 | 2.5 | 4.08 | 2.92
26 | AUUCACCUAGGGCAUCAGGUG [Fam2.2 aminoacylation ribozyme variant] | 1.46 | 1.35 | 1.6 | 1.46 | 1.7 | 1.55

Row | Sequence | self-aminoacylation (biotinyl-Phe-oxazolone) | self-aminoacylation (biotinyl-Ile-oxazolone) | self-aminoacylation (biotinyl-Met-oxazolone) | self-aminoacylation (biotinyl-Val-oxazolone) | self-aminoacylation (biotinyl-Leu-oxazolone) | self-aminoacylation (biotinyl-Trp-oxazolone)
27 | AUUCACCUAGGGCAUCGCGUG [Fam2.2 aminoacylation ribozyme variant] | 26.7 | 3.12 | 3.5 | 3.89 | 2.92 | 2.95
28 | AUUCACCUAGGGCAUCGGGUG [Fam2.2 aminoacylation ribozyme variant] | 20.3 | 2.78 | 3.55 | 3 | 4.05 | 3.4
29 | AUUCACCUAGGGCAUCUGGUG [Fam2.2 aminoacylation ribozyme variant] | 13 | 2.11 | 2.63 | 2.33 | 3.23 | 2.64
30 | AUUCACCUAGGGCAUUGGGUG [Fam2.2 aminoacylation ribozyme variant] | 42.8 | 3.74 | 6.54 | 3.49 | 8.05 | 6.12
31 | AUUCACCUAGGUAAGCGGGUG [Fam2.2 aminoacylation ribozyme variant] | 14.3 | 1.9 | 2.73 | 1.48 | 2.75 | 2.31
32 | AUUCACCUAGGUAAUCAGGUG [Fam2.2 aminoacylation ribozyme variant] | 1.21 | 0.967 | 1.25 | 0.989 | 1.31 | 0.933
33 | AUUCACCUAGGUAAUCCGGUG [Fam2.2 aminoacylation ribozyme variant] | 30.4 | 2.33 | 3.77 | 2.39 | 4.57 | 4.8
34 | AUUCACCUAGGUAAUCGGGUC [Fam2.2 aminoacylation ribozyme variant] | 0.508 | 0.866 | 0.606 | 0.689 | 0.754 | 0.691
35 | AUUCACCUAGGUACUCGGGUG [Fam2.2 aminoacylation ribozyme variant] | 29.8 | 2.15 | 2.47 | 2.11 | 3.3 | 2.78
36 | AUUCACCUAGGUCAACAGGUG [Fam2.2 aminoacylation ribozyme variant] | 5.63 | 1.64 | 2.2 | 1.56 | 2.8 | 1.87
37 | AUUCACCUAGGUCACCCGGUG [Fam2.2 aminoacylation ribozyme variant] | 37.3 | 9.3 | 7.32 | 7.55 | 9.93 | 5.82
38 | AUUCACCUAGGUCACCGAGUG [Fam2.2 aminoacylation ribozyme variant] | 14.4 | 2.11 | 3.57 | 1.99 | 4.03 | 3.47
39 | AUUCACCUAGGUCACCGGGCG [Fam2.2 aminoacylation ribozyme variant] | 11.3 | 3.96 | 3.66 | 4.43 | 4.7 | 4.68
40 | AUUCACCUAGGUCAGCGGGUG [Fam2.2 aminoacylation ribozyme variant] | 29.1 | 3.3 | 4.39 | 3.2 | 5.95 | 4.21
41 | AUUCACCUAGGUCAUAAGGUG [Fam2.2 aminoacylation ribozyme variant] | 6.42 | 1.98 | 3.33 | 1.69 | 3.48 | 2.59
42 | AUUCACCUAGGUCAUAGGGUA [Fam2.2 aminoacylation ribozyme variant] | 0.412 | 1.21 | 0.923 | 1.16 | 0.856 | 1.67
43 | AUUCACCUAGGUCAUCAGAUG [Fam2.2 aminoacylation ribozyme variant] | 0.715 | 0.857 | 0.656 | 0.872 | 0.928 | 0.522
44 | AUUCACCUAGGUCAUCCGGUA [Fam2.2 aminoacylation ribozyme variant] | 6.52 | 2.36 | 2.17 | 2.3 | 2.3 | 1.87
45 | AUUCACCUAGGUCAUCGCGUU [Fam2.2 aminoacylation ribozyme variant] | 12.7 | 2.48 | 2.62 | 2.39 | 3 | 3.66
46 | AUUCACCUAGGUCAUCGCUUG [Fam2.2 aminoacylation ribozyme variant] | 4.33 | 1.18 | 1.32 | 1.12 | 1.26 | 0.795
47 | AUUCACCUAGGUCAUCGGGCC [Fam2.2 aminoacylation ribozyme variant] | 14.7 | 2.73 | 3.51 | 2.97 | 4.1 | 4.4
48 | AUUCACCUAGGUCAUCGGGGC [Fam2.2 aminoacylation ribozyme variant] | 20.7 | 4.85 | 7.18 | 4.81 | 11.5 | 5.91
49 | AUUCACCUAGGUCAUCGGUAG [Fam2.2 aminoacylation ribozyme variant] | 0.533 | 0.626 | 0.838 | 0.836 | 0.606 | 0.372
50 | AUUCACCUAGGUCAUCGGUUG [Fam2.2 aminoacylation ribozyme variant] | 1.02 | 1 | 1.01 | 1.03 | 1.11 | 0.932
51 | AUUCACCUAGGUCAUCUAGUG [Fam2.2 aminoacylation ribozyme variant] | 18.7 | 2.92 | 4.77 | 2.78 | 5.99 | 4.12
